Results as given in the Immune Epitope Database (IEDB).

Assays:
[1] = target: HLA-A*02:01; experiment: IEDB peptide-MHC binding, purified MHC/competitive/fluorescence; filed as Kd, often an IC50 or EC50 that approximates it; ≥ and ≤ were set here for values at or beyond the usual limits of such assays
[2] = target: HLA-A*26:02; experiment: as above; conditions: source organism: Human immunodeficiency virus 1
[3] = target: HLA-A*68:02; experiment: as above; conditions: source organism: Human immunodeficiency virus 1
[4] = target: HLA-B*39:01; experiment: as above
[5] = target: HLA-A*01:01; experiment: IEDB peptide-MHC binding, purified MHC/direct/fluorescence; filed as Kd, often an IC50 or EC50 that approximates it; ≥ and ≤ were set here for values at or beyond the usual limits of such assays
[6] = target: HLA-A*02:03; experiment: as above
[7] = target: HLA-A*02:11; experiment: as above
[8] = target: HLA-A*02:12; experiment: as above
[9] = target: HLA-A*02:16; experiment: as above
[10] = target: HLA-A*02:19; experiment: as above
[11] = target: HLA-A*03:01; experiment: as above
[12] = target: HLA-A*23:01; experiment: as above
[13] = target: HLA-A*24:03; experiment: as above
[14] = target: HLA-A*29:02; experiment: as above
[15] = target: HLA-A*68:02; experiment: as above
[16] = target: HLA-A*26:01; experiment: IEDB peptide-MHC binding, purified MHC/competitive/fluorescence; filed as Kd, often an IC50 or EC50 that approximates it; ≥ and ≤ were set here for values at or beyond the usual limits of such assays
[17] = target: HLA-A*69:01; experiment: as above
[18] = target: HLA-B*15:01; experiment: as above
[19] = target: HLA-B*15:17; experiment: as above
[20] = target: HLA-B*18:01; experiment: as above
[21] = target: HLA-B*27:03; experiment: as above
[22] = target: HLA-B*46:01; experiment: as above
[23] = target: HLA-B*51:01; experiment: as above
[24] = target: HLA-B*57:01; experiment: as above
[25] = target: HLA-A*02:03; experiment: as above; conditions: source organism: Human immunodeficiency virus 1
[26] = target: HLA-A*02:01; experiment: IEDB peptide-MHC binding, purified MHC/competitive/fluorescence; ≥ and ≤ were set here for values at or beyond the usual limits of such assays
[27] = target: HLA-B*07:02; experiment: as above
[28] = target: HLA-B*15:01; experiment: as above
[29] = target: HLA-B*08:01; experiment: IEDB peptide-MHC binding, purified MHC/direct/fluorescence; filed as Kd, often an IC50 or EC50 that approximates it; ≥ and ≤ were set here for values at or beyond the usual limits of such assays; conditions: source organism: Rio Mamore hantavirus
[30] = target: HLA-B*40:01; experiment: as above; conditions: source organism: Sudan ebolavirus - Uganda (2000)
[31] = target: HLA-A*24:02; experiment: IEDB peptide-MHC binding, purified MHC/competitive/fluorescence; ≥ and ≤ were set here for values at or beyond the usual limits of such assays
[32] = target: HLA-A*03:01; experiment: IEDB peptide-MHC binding, purified MHC/competitive/fluorescence; filed as Kd, often an IC50 or EC50 that approximates it; ≥ and ≤ were set here for values at or beyond the usual limits of such assays; conditions: source organism: Orthohantavirus sinnombreense
[33] = target: HLA-A*31:01; experiment: as above; conditions: source organism: Orthohantavirus sinnombreense
[34] = target: HLA-A*02:01; experiment: IEDB peptide-MHC binding, purified MHC/direct/fluorescence; filed as Kd, often an IC50 or EC50 that approximates it; ≥ and ≤ were set here for values at or beyond the usual limits of such assays; conditions: source organism: Sudan ebolavirus - Maleo (1979)
[35] = target: HLA-A*03:01; experiment: IEDB peptide-MHC binding, purified MHC/competitive/fluorescence; ≥ and ≤ were set here for values at or beyond the usual limits of such assays
[36] = target: HLA-A*11:01; experiment: as above
[37] = source organism: Human immunodeficiency virus 1
[38] = source organism: Zaire ebolavirus
[39] = source organism: Ravn virus - Ravn, Kenya, 1987
[40] = source organism: Limestone Canyon virus
[41] = source organism: Lechiguanas virus
[42] = source organism: Sudan ebolavirus
[43] = source organism: Orthohantavirus sinnombreense
[44] = source organism: Reston ebolavirus
[45] = source organism: Vaccinia virus

DIKDTKEAL gave a Kd [1, 37] of at least 20 µM, a Kd [2] of at least 20 µM and a Kd [3] of 1.7 µM. The Kd [4, 37] was at least 20 µM.

In the case of DLEKYNLAF, the Kd [5, 38] is reported as at least 20 µM, the Kd [6, 39] is reported as at least 20 µM and the Kd [7, 39] is reported as at least 20 µM. The Kd [8, 39] was at least 20 µM, the Kd [9, 39] was at least 20 µM and the Kd [10, 39] was at least 20 µM. For the same sequence, the Kd [11, 39] was at least 20 µM, the Kd [12, 39] was at least 20 µM and the Kd [13, 39] was at least 20 µM. The Kd [14, 39] was at least 20 µM, the Kd [15, 39] was at least 20 µM and the Kd [1, 38] was at least 20 µM. For the same sequence, the Kd [16, 38] was at least 20 µM, the Kd [17, 38] was at least 20 µM and the Kd [18, 38] was at least 20 µM. For the same sequence, the Kd [19, 38] was at least 20 µM, the Kd [20, 38] was at least 20 µM and the Kd [21, 38] was at least 20 µM. The Kd [4, 38] was at least 20 µM, the Kd [22, 38] was at least 20 µM and the Kd [23, 38] was at least 20 µM. The Kd [24, 38] was at least 20 µM.

With EELKSLFNTI the Kd [25] was 1.54 µM and the Kd [3] was 1.18 µM.

FIHIPGDTL showed an IC50 ([26]; source organism: Variola virus) of 2.55 µM, an IC50 ([27]; source organism: Variola virus) of 47 µM and an IC50 ([28]; source organism: Variola virus) of at least 80.7 µM.

Work on KLKSVGKAY yielded a Kd [6, 40] of at least 20 µM, a Kd [7, 40] of at least 20 µM and a Kd [8, 40] of at least 20 µM. The Kd [9, 40] was at least 20 µM, the Kd [10, 40] was at least 20 µM and the Kd ([11]; source organism: Rio Mamore hantavirus) was 0.536 µM. The Kd [13, 40] was at least 20 µM, the Kd [14, 40] was at least 20 µM and the Kd [15, 40] was at least 20 µM. The Kd [29] was at least 20 µM, the Kd [1, 41] was at least 20 µM and the Kd [16, 41] was at least 20 µM. It also gave a Kd [17, 41] of at least 20 µM, a Kd [20, 41] of at least 20 µM and a Kd [21, 41] of at least 20 µM. It also gave a Kd [4, 41] of at least 20 µM, a Kd [23, 41] of at least 20 µM and a Kd [24, 41] of at least 20 µM.

LESLTDREL gave a Kd [6, 38] of at least 20 µM, a Kd [7, 38] of at least 20 µM and a Kd [8, 38] of at least 20 µM. The Kd [9, 38] was at least 20 µM, the Kd [10, 38] was at least 20 µM and the Kd [11, 38] was at least 20 µM. It also gave a Kd [13, 38] of at least 20 µM, a Kd [15, 38] of at least 20 µM and a Kd [30] of 0.118 µM. It also gave a Kd [1, 38] of at least 20 µM, a Kd [16, 38] of at least 20 µM and a Kd [17, 38] of at least 20 µM. The Kd [18, 38] was at least 20 µM, the Kd [19, 38] was at least 20 µM and the Kd [20, 38] was at least 20 µM. For the same sequence, the Kd [21, 38] was at least 20 µM, the Kd [4, 38] was at least 20 µM and the Kd [22, 38] was at least 20 µM. For the same sequence, the Kd [23, 38] was at least 20 µM and the Kd [24, 38] was at least 20 µM.

Work on RPHTPQFLF yielded an IC50 [31, 42] of 1.03 µM and an IC50 [27, 42] of 1.46 µM.

In the case of RTLGVFRYK, the Kd [6, 40] is reported as at least 20 µM, the Kd [8, 40] is reported as at least 20 µM and the Kd [9, 40] is reported as at least 20 µM. It also gave a Kd [10, 40] of at least 20 µM, a Kd [14, 40] of at least 20 µM and a Kd [15, 40] of at least 20 µM. The Kd [32] was 0.109 µM, the Kd [16, 43] was at least 20 µM and the Kd [33] was 0.0062 µM. For the same sequence, the Kd [17, 43] was at least 20 µM, the Kd [18, 43] was at least 20 µM and the Kd [20, 43] was at least 20 µM. It also gave a Kd [4, 43] of at least 20 µM, a Kd [22, 43] of at least 20 µM and a Kd [23, 43] of at least 20 µM.

In the case of SMHYKLDEV, the Kd [34] is reported as 0.0151 µM, the Kd [11, 38] is reported as at least 20 µM and the Kd [12, 38] is reported as at least 20 µM. The Kd [13, 38] was at least 20 µM, the Kd [14, 38] was at least 20 µM and the Kd [16, 38] was at least 20 µM. It also gave a Kd [17, 38] of at least 20 µM, a Kd [18, 38] of at least 20 µM and a Kd [19, 38] of at least 20 µM. For the same sequence, the Kd [20, 38] was at least 20 µM, the Kd [21, 38] was at least 20 µM and the Kd [4, 38] was at least 20 µM. For the same sequence, the Kd [22, 38] was at least 20 µM, the Kd [23, 38] was at least 20 µM and the Kd [24, 38] was at least 20 µM.

With TGFGTNETE the IC50 [27, 38] was at least 221 µM.

With TLRKERLAK the IC50 [35, 38] was 0.509 µM, the IC50 [36, 38] was 4.25 µM and the IC50 [27, 38] was at least 119 µM. It also gave an IC50 [28, 38] of at least 171 µM.

TPSATTAAG was tested, and the IC50 [27, 38] was at least 144 µM.

Sequence TSPRMLTPI has an IC50 [26, 38] of at least 684 µM, an IC50 [31, 38] of 3.05 µM and an IC50 [27, 38] of at least 260 µM.

TTDDSTSYY showed a Kd ([5]; source organism: Reston ebolavirus - Reston) of 0.0122 µM, a Kd [6, 44] of at least 20 µM and a Kd [7, 44] of at least 20 µM. The Kd [8, 44] was at least 20 µM, the Kd [9, 44] was at least 20 µM and the Kd [10, 44] was at least 20 µM. It also gave a Kd [11, 44] of at least 20 µM, a Kd [12, 44] of at least 20 µM and a Kd [13, 44] of at least 20 µM. The Kd [15, 44] was at least 20 µM, the Kd [1, 44] was at least 20 µM and the Kd [16, 44] was at least 20 µM. It also gave a Kd [17, 44] of at least 20 µM, a Kd [18, 44] of at least 20 µM and a Kd [19, 44] of at least 20 µM. For the same sequence, the Kd [20, 44] was at least 20 µM, the Kd [21, 44] was at least 20 µM and the Kd [4, 44] was at least 20 µM. For the same sequence, the Kd [22, 44] was at least 20 µM, the Kd [23, 44] was at least 20 µM and the Kd [24, 44] was at least 20 µM.

With YIKNIGNTK the IC50 [35, 45] was 6.51 µM, the IC50 [36, 45] was 30.5 µM and the IC50 [27, 45] was at least 745 µM.
